US20200190507A1, “Encoded Solid Phase Compound Library with Polynucleotide Based Barcoding” (The Scripps Research Institute, priority 2016, published 2020)
“Also recorded” adds a separate entry of the source.

B1: recombinant Ag85B: Mycobacterium tuberculosis recombinant protein reference standard Ag85B, expressed in E. coli (protein)
chain: FSRPGLPVEYLQVPSPSMGRDIKVQFQSGGNNSPAVYLLDGLRAQDDYNGWDINTPAFEWYYQSGLSIVMPVGGQSSFYSDWYSPACGKAGCQTYKWETFLTSELPQWLSANRAVKPTGSAAIGLSMAGSSAMILAAYHPQQFIYAGSLSALLDPSQGMGPSLIGLAMGDAGGYKAADMWGPSSDPAWERNDPTQQIPKLVANNTRLWVYCGNGTPNELGGANIPAEFLENFVRSSNLKFQDAYNAAGGHNAVFNFPPNGTHSWEYWGAQLNAMKGDLQSSLGAG
B2: Ag85B: Mycobacterium tuberculosis purified native protein Ag85B (Gene Rv1886c), Strain H37Rv (protein)
chain: B1 chain

System: ATB serum IgGs
Assay: Antigen competition binding analysis with beads displaying 2-B
Design: species or system human
Settings: for competition with 2-B for binding ATB serum IgGs: pooled ATB serum, beads displaying 2-B, CFP 250 μg/mL

Molecule	competition with 2-B for binding ATB serum IgGs	ATB IgG binding of Ag85B relative to Ag85A (competition titration with 2-B beads)
B1	no binding competition; also recorded: unreactive; also recorded: did not compete	
B2	compete strongly	~10 fold
